Test results as given in paper PMC2172211 (The Journal of Cell Biology, 2004).

Target: T1, GST-Patj (Drosophila, UniProt Q9NB04 1-871)
T1 sequence (looked up): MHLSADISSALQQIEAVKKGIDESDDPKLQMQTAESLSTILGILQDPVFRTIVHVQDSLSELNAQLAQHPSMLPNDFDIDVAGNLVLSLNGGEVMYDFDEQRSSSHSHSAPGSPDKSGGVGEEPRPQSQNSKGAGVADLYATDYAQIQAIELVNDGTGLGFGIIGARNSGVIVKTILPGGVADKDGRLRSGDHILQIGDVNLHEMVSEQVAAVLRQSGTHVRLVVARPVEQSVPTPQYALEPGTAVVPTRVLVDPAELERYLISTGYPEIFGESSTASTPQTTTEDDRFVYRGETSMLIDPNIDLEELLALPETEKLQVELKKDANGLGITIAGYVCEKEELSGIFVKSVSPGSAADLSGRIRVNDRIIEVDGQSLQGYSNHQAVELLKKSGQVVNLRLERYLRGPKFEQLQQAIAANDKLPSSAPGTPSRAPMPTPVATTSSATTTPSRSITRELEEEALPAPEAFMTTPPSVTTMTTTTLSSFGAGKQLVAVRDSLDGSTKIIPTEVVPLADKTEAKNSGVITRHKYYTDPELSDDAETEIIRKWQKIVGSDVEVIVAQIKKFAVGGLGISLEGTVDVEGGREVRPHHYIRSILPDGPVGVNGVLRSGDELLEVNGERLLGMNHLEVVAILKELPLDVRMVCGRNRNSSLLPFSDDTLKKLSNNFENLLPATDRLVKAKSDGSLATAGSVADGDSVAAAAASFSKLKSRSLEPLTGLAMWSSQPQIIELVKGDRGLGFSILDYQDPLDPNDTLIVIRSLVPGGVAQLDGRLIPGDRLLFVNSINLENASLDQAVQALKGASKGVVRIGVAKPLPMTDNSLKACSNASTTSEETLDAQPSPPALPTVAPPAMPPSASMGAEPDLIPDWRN
Assay: pull-down

binding result: binds
B1: His-tagged DaPKC (enzyme, Drosophila, UniProt A1Z9X0 1-606, looked up)
chain: MQKMPSQILNDGSSVSLNSASMNMANTPNSITVKTAYNGQIIITTINKNISYEELCYEIRNICRFPLDQPFTIKWVDEENDPCTISTKMELDEAIRLYEMNFDSQLVIHVFPNVPQAPGLSCDGEDRSIYRRGARRWRKLYRVNGHIFQAKRFNRRAFCAYCQDRIWGLGRQGFKCIQCKLLVHKKCHKLVQKHCTDQPEPLVKERAEESSDPIPVPLPPLPYEAMSGGAEACETHDHAHIVAPPPPEDPLEPGTQRQYSLNDFELIRVIGRGSYAKVLMVELRRTRRIYAMKVIKKALVTDDEDIDWVQTEKHVFETASNHPFLVGLHSCFQTPSRLFFVIEFVRGGDLMYHMQRQRRLPEEHARFYAAEISLALNFLHEKGIIYRDLKLDNVLLDHEGHIKLTDYGMCKEGIRPGDTTSTFCGTPNYIAPEILRGEDYGFSVDWWALGVLLYEMLAGRSPFDLAGASENPDQNTEDYLFQVILEKTIRIPRSLSVRAASVLKGFLNKNPADRLGCHRESAFMDIVSHPFFKNMDWELLERKQVTPPFKPRLDSDRDLANFPPEFTGEAVQLTPDDDHVIDNIDQSEFEGFEYVNPLLMSLEDCV
